Experimental data from patent US20140112936A1.

Legend:
[1] = molecular target: gp41-inter (HIV-1 clade A isolate 92UG037.8); experiment: SPR, gp41-inter immobilized on CM5 chip, Fab as analyte, 1:1 Langmuir
[2] = molecular target: GCN4-gp41-inter (HIV-1 clade A isolate 92UG037.8 (gp41 part)); experiment: SPR, GCN4-gp41-inter immobilized on CM5 chip, Fab as analyte, 1:1 Langmuir
[3] = molecular target: gp41-inter (HIV-1 clade A isolate 92UG037.8); experiment: SPR, gp41-inter immobilized on CM5 chip, Fab as analyte, 1:1 Langmuir (single curve)
[4] = molecular target: GCN4-gp41-inter (HIV-1 clade A isolate 92UG037.8 (gp41 part)); experiment: SPR, GCN4-gp41-inter immobilized on CM5 chip, Fab as analyte, 1:1 Langmuir (single curve)

Z13e1 Fab
Kd [1]: 97.7 nM | koff [1]: 0.00548 s⁻¹ | kon [1]: 56000 M⁻¹ s⁻¹ | Kd [2]: 34 nM | koff [2]: 0.00289 s⁻¹ | kon [2]: 85000 M⁻¹ s⁻¹

4E10 Fab
Kd [3]: 8.85 nM | koff [3]: 0.000235 s⁻¹ | kon [3]: 26600 M⁻¹ s⁻¹ | Kd [4]: 4.86 nM | koff [4]: 0.000237 s⁻¹ | kon [4]: 48800 M⁻¹ s⁻¹

2F5 Fab
Kd [1]: 0.415 nM | koff [1]: 0.00019 s⁻¹ | kon [1]: 457000 M⁻¹ s⁻¹ | Kd [2]: 0.317 nM | koff [2]: 0.000158 s⁻¹ | kon [2]: 498000 M⁻¹ s⁻¹
